Experimental data reported in US20110008345A1 (GlaxoSmithKline, published 2011).
Several values for one entry are separate records, joined by “and”; a condition that tells them apart may be missing. Identical values can stand only once. Values belong to the binder of their own block, whether it stands above or below them.

Columns and labels:
[1] = biological target: T1, recombinant E. coli-expressed human IL-4 (human, UniProt P05112 25-153); test: ELISA, IL-4 binding to IL4Ralpha-Fc
T1 construct: made and purified at GSK; also called Interleukin-4; rhIL-4
T1 sequence: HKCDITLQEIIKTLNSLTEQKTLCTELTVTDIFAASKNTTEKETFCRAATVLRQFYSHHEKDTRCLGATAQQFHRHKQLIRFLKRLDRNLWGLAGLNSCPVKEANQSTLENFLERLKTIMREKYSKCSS

[2] = biological target: T2, recombinant E. coli-expressed human IL-13 (human, UniProt P35225 35-146); test: SPR, no IL-4 bound
T2 construct: made and purified at GSK; also called Interleukin-13; rhIL-13

[3] = biological target: T2, recombinant E. coli-expressed human …; test: SPR
[4] = biological target: T2, recombinant E. coli-expressed human …; test: SPR, human IL-4 bound first
[5] = biological target: T1, recombinant E. coli-expressed human IL-4; test: cell-based or functional assay
[6] = biological target: T2, recombinant E. coli-expressed human …; test: cell-based or functional assay
[7] = biological target: T2, recombinant E. coli-expressed human …; test: SPR, purified
[8] = biological target: T1, recombinant E. coli-expressed human IL-4; test: SPR, poor curve fit
[9] = biological target: T1, recombinant E. coli-expressed human IL-4; test: SPR
[10] = biological target: T3, recombinant E. coli-expressed cynomolgus IL-4 (cynomolgus, UniProt P79339 25-153); test: SPR
T3 construct: also called cyno IL-4
T3 sequence (looked up): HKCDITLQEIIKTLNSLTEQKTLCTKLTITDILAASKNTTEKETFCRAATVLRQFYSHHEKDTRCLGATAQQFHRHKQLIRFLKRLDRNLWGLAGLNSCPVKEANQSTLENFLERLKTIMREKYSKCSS

[11] = biological target: T4, recombinant E. coli-expressed cynomolgus IL-13 (cynomolgus, UniProt Q0PW92 21-132); test: SPR
T4 construct: also called cyno IL-13

[12] = biological target: T2, recombinant E. coli-expressed human …; test: SPR exp 3
[13] = biological target: T2, recombinant E. coli-expressed human …; test: SPR; remark: listed apart in the source
[14] = biological target: T1, recombinant E. coli-expressed human IL-4; test: SPR, purified
VEGF R2 (VEGF receptor) = biological target: T5, VEGF R2 (VEGF receptor) (human, UniProt P35968 20-764); test: ELISA
T5 construct: bought; construct not described

recombinant human HER2 = biological target: T6, recombinant human HER2 (human, UniProt P04626 23-652, limits assumed); test: ELISA
T6 construct: bought

recombinant human VEGF = biological target: T7, recombinant human VEGF (human, UniProt P15692-4 27-191); test: ELISA
T7 construct: also called VEGF165; hVEGF165

[15] = biological target: T8, Recombinant Human HGF R (c-MET)/Fc Chimera (human, UniProt P08581 25-932); test: ELISA
T8 construct: bought; also called HGF receptor

[16] = biological target: T9, CD20 on CD20 positive cell line (Wein133) (UniProt P11836 1-297, limits assumed); test: flow cytometry, Wein133 cells
T9 construct: whole, on cells
T9 sequence (looked up): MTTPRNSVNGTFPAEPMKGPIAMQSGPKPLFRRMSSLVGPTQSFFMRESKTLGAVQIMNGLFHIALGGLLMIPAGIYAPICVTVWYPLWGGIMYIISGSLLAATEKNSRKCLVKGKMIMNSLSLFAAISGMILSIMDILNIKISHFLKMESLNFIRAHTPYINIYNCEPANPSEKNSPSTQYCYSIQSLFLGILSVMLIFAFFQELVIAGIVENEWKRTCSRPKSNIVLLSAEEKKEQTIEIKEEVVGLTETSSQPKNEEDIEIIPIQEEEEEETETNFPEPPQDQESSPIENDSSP

[17] = biological target: T2, recombinant E. coli-expressed human …; test: SPR; remark: listed apart in the source

T5 sequence (P35968 20-764 limits assumed): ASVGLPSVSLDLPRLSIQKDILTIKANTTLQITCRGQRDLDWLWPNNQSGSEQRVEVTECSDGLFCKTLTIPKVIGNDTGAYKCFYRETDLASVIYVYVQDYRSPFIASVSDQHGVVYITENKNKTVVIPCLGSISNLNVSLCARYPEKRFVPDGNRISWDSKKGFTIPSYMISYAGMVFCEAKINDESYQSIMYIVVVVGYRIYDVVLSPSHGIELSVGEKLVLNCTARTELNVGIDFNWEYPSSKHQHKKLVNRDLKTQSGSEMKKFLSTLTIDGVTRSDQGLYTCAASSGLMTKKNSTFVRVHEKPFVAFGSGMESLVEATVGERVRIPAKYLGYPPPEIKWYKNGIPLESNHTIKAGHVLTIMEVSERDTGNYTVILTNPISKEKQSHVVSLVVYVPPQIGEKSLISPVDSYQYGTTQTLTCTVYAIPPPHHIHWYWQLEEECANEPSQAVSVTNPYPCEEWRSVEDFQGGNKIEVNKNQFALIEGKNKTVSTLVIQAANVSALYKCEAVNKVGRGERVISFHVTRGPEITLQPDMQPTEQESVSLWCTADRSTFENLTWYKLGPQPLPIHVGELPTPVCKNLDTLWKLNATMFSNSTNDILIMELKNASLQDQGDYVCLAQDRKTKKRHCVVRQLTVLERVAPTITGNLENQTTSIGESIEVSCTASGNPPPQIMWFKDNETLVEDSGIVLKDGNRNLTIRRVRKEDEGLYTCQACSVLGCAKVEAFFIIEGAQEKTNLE
T8 sequence (P08581 25-932 limits assumed, change not shown): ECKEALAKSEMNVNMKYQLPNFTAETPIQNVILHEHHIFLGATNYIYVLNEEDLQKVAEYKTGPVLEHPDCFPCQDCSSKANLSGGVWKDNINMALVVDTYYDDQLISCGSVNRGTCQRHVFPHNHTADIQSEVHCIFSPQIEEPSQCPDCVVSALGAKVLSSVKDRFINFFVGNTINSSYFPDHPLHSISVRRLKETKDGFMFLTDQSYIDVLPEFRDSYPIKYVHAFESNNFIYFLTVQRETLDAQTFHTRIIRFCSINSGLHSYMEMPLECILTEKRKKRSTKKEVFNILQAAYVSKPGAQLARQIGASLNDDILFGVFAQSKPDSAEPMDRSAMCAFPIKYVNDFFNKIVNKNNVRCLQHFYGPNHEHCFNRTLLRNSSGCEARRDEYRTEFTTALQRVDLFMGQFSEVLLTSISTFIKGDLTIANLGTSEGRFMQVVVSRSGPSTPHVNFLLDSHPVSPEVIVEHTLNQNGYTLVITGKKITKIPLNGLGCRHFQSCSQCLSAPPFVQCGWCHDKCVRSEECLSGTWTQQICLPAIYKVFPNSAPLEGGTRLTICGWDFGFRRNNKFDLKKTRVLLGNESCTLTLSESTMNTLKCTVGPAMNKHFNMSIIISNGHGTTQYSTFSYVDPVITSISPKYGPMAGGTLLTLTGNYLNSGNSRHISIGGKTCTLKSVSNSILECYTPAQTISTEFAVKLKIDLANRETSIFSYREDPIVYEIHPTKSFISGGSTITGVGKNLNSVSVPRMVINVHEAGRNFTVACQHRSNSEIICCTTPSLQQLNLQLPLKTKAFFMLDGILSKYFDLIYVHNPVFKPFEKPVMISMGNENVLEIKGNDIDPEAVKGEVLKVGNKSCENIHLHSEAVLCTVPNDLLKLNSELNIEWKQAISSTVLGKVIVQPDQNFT

B1: 586H-TVAAPS-210 (bispecific antibody, human IgG1, kappa)
heavy: not shown
light: DIVMTQSPLSLPVTPGEPASISCRSSQNIVHINGNTYLEWYLQKPGQSPRLLIYKISDRFSGVPDRFSGSGSGTDFTLKISRVEADDVGIYYCFQGSHVPWTFGQGTKLEIKRTVAAPSVFIFPPSDEQLKSGTASVVCLLNNFYPREAKVQWKVDNALQSGNSQESVTEQDSKDSTYSLSSTLTLSKADYEKHKVYACEVTHQGLSSPVTKSFNRGEC
IC50 [1]: 23.8 nM and 21 nM
Kd [2]: 0.381 nM
koff [2]: 0.000347 s⁻¹
kon [2]: 909000 M⁻¹ s⁻¹
Kd [3]: 0.4 nM
Kd [4]: 0.325 nM
koff [4]: 0.000315 s⁻¹
kon [4]: 968000 M⁻¹ s⁻¹
Mean IC50 (whole blood phospho-STAT6) [5]: 1.23 nM
Mean IC50 (whole blood phospho-STAT6) [6]: 2.68 nM
Kd [7]: 0.38 nM

B2: 586H-ELQLE-147 (bispecific antibody, human IgG1, kappa)
heavy: not shown
light: DIVMTQSPLSLPVTPGEPASISCRSSQNIVHINGNTYLEWYLQKPGQSPRLLIYKISDRFSGVPDRFSGSGSGTDFTLKISRVEADDVGIYYCFQGSHVPWTFGQGTKLEIKRTVAAPSVFIFPPSDEQLKSGTASVVCLLNNFYPREAKVQWKVDNALQSGNSQESVTEQDSKDSTYSLSSTLTLSKADYEKHKVYACEVTHQGLSSPVTKSFNRGEC
Kd [8]: 0.027 nM
Kd [3]: 0.51 nM
koff [9]: 1.52e-05 s⁻¹
kon [9]: 701000 M⁻¹ s⁻¹

B3: 586H-TVAAPS-210 GS removed (bispecific antibody, human IgG1, kappa)
heavy: not shown
light: DIVMTQSPLSLPVTPGEPASISCRSSQNIVHINGNTYLEWYLQKPGQSPRLLIYKISDRFSGVPDRFSGSGSGTDFTLKISRVEADDVGIYYCFQGSHVPWTFGQGTKLEIKRTVAAPSVFIFPPSDEQLKSGTASVVCLLNNFYPREAKVQWKVDNALQSGNSQESVTEQDSKDSTYSLSSTLTLSKADYEKHKVYACEVTHQGLSSPVTKSFNRGEC
notes: also called BPC1602
IC50 [1]: 19.2 nM
binding result [10]: binds
Kd [11]: 0.058 nM
koff [11]: 2.86e-05 s⁻¹
kon [11]: 492000 M⁻¹ s⁻¹
Kd [12]: 0.501 nM
Kd [13]: 0.562 nM

B6: 586H-ELQLE-25 (bispecific antibody, human IgG1, kappa)
heavy: not shown
light: DIVMTQSPLSLPVTPGEPASISCRSSQNIVHINGNTYLEWYLQKPGQSPRLLIYKISDRFSGVPDRFSGSGSGTDFTLKISRVEADDVGIYYCFQGSHVPWTFGQGTKLEIKRTVAAPSVFIFPPSDEQLKSGTASVVCLLNNFYPREAKVQWKVDNALQSGNSQESVTEQDSKDSTYSLSSTLTLSKADYEKHKVYACEVTHQGLSSPVTKSFNRGEC
Kd [8]: 0.001 nM
Kd [3]: 0.42 nM
koff [9]: 1.63e-06 s⁻¹
kon [9]: 1.26e+06 M⁻¹ s⁻¹

B8: BPC1019 (antibody, human IgG1, kappa)
heavy: not shown
chain: not shown
light: DIQMTQSPSSLSASVGDRVTITCKSSQSLLYTSSQKNYLAWYQQKPGKAPKLLIYWASTRESGVPSRFSGSGSGTDFTLTISSLQPEDFATYYCQQYYAYPWTFGQGTKVEIKRTVAAPSVFIFPPSDEQLKSGTASVVCLLNNFYPREAKVQWKVDNALQSGNSQESVTEQDSKDSTYSLSSTLTLSKADYEKHKVYACEVTHQGLSSPVTKSFNRGEC
notes: monovalent antibody; also called anti cMET 5D5v2 knob-into-hole
binding result (recombinant human VEGF): no binding
binding result [15]: binds

B10: BPC1402 (bispecific antibody, human IgG1, kappa)
heavy: not shown
light: QIVLSQSPAILSASPGEKVTMTCRASSSVSYIHWFQQKPGSSPKPWIYATSNLASGVPVRFSGSGSGTSYSLTISRVEAEDAATYYCQQWTSNPPTFGGGTKLEIKRTVAAPSVFIFPPSDEQLKSGTASVVCLLNNFYPREAKVQWKVDNALQSGNSQESVTEQDSKDSTYSLSSTLTLSKADYEKHKVYACEVTHQGLSSPVTKSFNRGEC
notes: also called RituxanH-GS-DOM474
binding result [16]: binds
Kd [17]: 0.358 nM
koff [17]: 0.000305 s⁻¹
kon [17]: 852000 M⁻¹ s⁻¹

The remaining lines, values ahead:

Kd [8]: 0.003 nM
Kd [3]: 0.44 nM
koff [9]: 3.57e-06 s⁻¹
kon [9]: 1.25e+06 M⁻¹ s⁻¹
B4: 586H-ELQLE-154 (bispecific antibody, human IgG1, kappa)
heavy: not shown
light: DIVMTQSPLSLPVTPGEPASISCRSSQNIVHINGNTYLEWYLQKPGQSPRLLIYKISDRFSGVPDRFSGSGSGTDFTLKISRVEADDVGIYYCFQGSHVPWTFGQGTKLEIKRTVAAPSVFIFPPSDEQLKSGTASVVCLLNNFYPREAKVQWKVDNALQSGNSQESVTEQDSKDSTYSLSSTLTLSKADYEKHKVYACEVTHQGLSSPVTKSFNRGEC

Kd [3]: 0.5 nM
Kd [14]: 1.1 nM
Kd [7]: 0.38 nM
Kd [9]: 0.95 nM
koff [9]: 0.00012 s⁻¹
kon [9]: 127000 M⁻¹ s⁻¹
B5: 586H-TVAAPS-25 (bispecific antibody, human IgG1, kappa)
heavy: not shown
light: DIVMTQSPLSLPVTPGEPASISCRSSQNIVHINGNTYLEWYLQKPGQSPRLLIYKISDRFSGVPDRFSGSGSGTDFTLKISRVEADDVGIYYCFQGSHVPWTFGQGTKLEIKRTVAAPSVFIFPPSDEQLKSGTASVVCLLNNFYPREAKVQWKVDNALQSGNSQESVTEQDSKDSTYSLSSTLTLSKADYEKHKVYACEVTHQGLSSPVTKSFNRGEC

binding result (VEGF R2 (VEGF receptor)): no binding
binding result (recombinant human HER2): no binding
binding result (recombinant human VEGF): no binding
B7: anti-IGF-1R antibody H0L0 (antibody, human IgG1, kappa, V domains shown)
VH: QVQLVQSGAEVKKPGASVKVSCKASGYTFTDYYMNWVRQAPGQGLEWMGNINPNNGGTNYNQKFKDRVTMTTDTSTSTAYMELRSLRSDDTAVYYCARWILYYGRSKWYFDVWGRGTLVTVSS
VL: DIVMTQSPLSLPVTPGEPASISCRSSQSIVQSNGDTYLEWYLQKPGQSPQLLIYRVSNRFSGVPDRFSGSGSGTDFTLKISRVEAEDVGVYYCFQGSHVPYTFGQGTKLEIKR
notes: also called HOLO

binding result [16]: binds
Kd [17]: 0.313 nM
koff [17]: 0.000182 s⁻¹
kon [17]: 581000 M⁻¹ s⁻¹
B9: BPC1401 (bispecific antibody, human IgG1, kappa)
heavy: not shown
light: QIVLSQSPAILSASPGEKVTMTCRASSSVSYIHWFQQKPGSSPKPWIYATSNLASGVPVRFSGSGSGTSYSLTISRVEAEDAATYYCQQWTSNPPTFGGGTKLEIKRTVAAPSVFIFPPSDEQLKSGTASVVCLLNNFYPREAKVQWKVDNALQSGNSQESVTEQDSKDSTYSLSSTLTLSKADYEKHKVYACEVTHQGLSSPVTKSFNRGEC

binding result [16]: binds
Kd [17]: 1.02 nM
koff [17]: 0.000508 s⁻¹
kon [17]: 499000 M⁻¹ s⁻¹
B11: BPC1404 (bispecific antibody, human IgG1, kappa)
heavy: not shown
light: QIVLSQSPAILSASPGEKVTMTCRASSSVSYIHWFQQKPGSSPKPWIYATSNLASGVPVRFSGSGSGTSYSLTISRVEAEDAATYYCQQWTSNPPTFGGGTKLEIKRTVAAPSVFIFPPSDEQLKSGTASVVCLLNNFYPREAKVQWKVDNALQSGNSQESVTEQDSKDSTYSLSSTLTLSKADYEKHKVYACEVTHQGLSSPVTKSFNRGECGSGVQLLESGGGLVQPGGSLRLSCAASGFTFAWYDMGWVRQAPGKGLEWVSSIDWHGEVTYYADSVKGRFTISRDNSKNTLYLQMNSLRAEDTAVYYCATAEDEPGYDYWGQGTLVTVSS
notes: also called RituxanL-GS-DOM474

binding result (VEGF R2 (VEGF receptor)): binds
B12: BPC1801 (bispecific antibody, human IgG1, kappa)
heavy: not shown
light: DIVMTQSPLSLPVTPGEPASISCRSSQSIVQSNGDTYLEWYLQKPGQSPQLLIYRVSNRFSGVPDRFSGSGSGTDFTLKISRVEAEDVGVYYCFQGSHVPYTFGQGTKLEIKRTVAAPSVFIFPPSDEQLKSGTASVVCLLNNFYPREAKVQWKVDNALQSGNSQESVTEQDSKDSTYSLSSTLTLSKADYEKHKVYACEVTHQGLSSPVTKSFNRGEC
notes: also called antiIGF1R Heavy Chain-GS-CT01 adnectin

binding result (VEGF R2 (VEGF receptor)): binds
B13: BPC1802 (bispecific antibody, human IgG1, kappa)
heavy: not shown
light: DIVMTQSPLSLPVTPGEPASISCRSSQSIVQSNGDTYLEWYLQKPGQSPQLLIYRVSNRFSGVPDRFSGSGSGTDFTLKISRVEAEDVGVYYCFQGSHVPYTFGQGTKLEIKRTVAAPSVFIFPPSDEQLKSGTASVVCLLNNFYPREAKVQWKVDNALQSGNSQESVTEQDSKDSTYSLSSTLTLSKADYEKHKVYACEVTHQGLSSPVTKSFNRGEC
